Assay results published in publication PMC5668318.

Target: 3XFLAG-Kenny LIR motif mutant (F7A/L10A) (Drosophila) (UniProt Q9GYV5)
Experiment: co-IP; anti-FLAG M2-agarose immunoprecipitation from lysates of transfected S2R+ cells, 4 °C overnight, elution with 3XFLAG peptide, blot for GFP

UniProt Q9GYV5, sequence (Q9GYV5 whole entry F7A/L10A): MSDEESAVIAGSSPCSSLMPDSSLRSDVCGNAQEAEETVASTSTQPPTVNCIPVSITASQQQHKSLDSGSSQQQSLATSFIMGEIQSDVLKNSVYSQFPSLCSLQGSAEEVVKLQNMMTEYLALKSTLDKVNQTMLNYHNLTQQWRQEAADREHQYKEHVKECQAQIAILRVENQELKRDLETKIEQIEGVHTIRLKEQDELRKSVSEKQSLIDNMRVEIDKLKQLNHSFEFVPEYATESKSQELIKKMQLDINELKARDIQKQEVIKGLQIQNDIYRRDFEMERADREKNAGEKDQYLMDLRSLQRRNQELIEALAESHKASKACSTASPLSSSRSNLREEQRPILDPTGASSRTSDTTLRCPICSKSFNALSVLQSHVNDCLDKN

percent decrease in the interaction against wild-type 3XFLAG-Kenny: 62%
Substance: eGFP-Atg8a (from UniProt Q9W2S2 1-121) (natural protein)
